Among the data in a protein production outcome set (Wang et al. 2014) are protein production values, retold here.

This data set in a line: label from the status in PepcDB records.
As for “MSAIDSQLPSSSGQDRPTDEVDRILSPGKLIILGLQHVLVMYAGAVAVPLMIGDRLGLSKEAIAMLISSDLFCCGIVTLLQCIGIGRFMGIRLPVIMSVTFAAVTPMIAIGMNPDIGLLGIFGATIAAGFITTLLAPLIGRLMPLFPPLVTGVVITSIGLSIIQVGIDWAAGGKGNPQYGNPVYLGISFAVLIFILLITRYAKGFMSNVAVLLGIVFGFLLSWMMNEVNLSGLHDASWFAIVTPMSFGMPIFDPVSILTMTAVLIIVFIESMGMFLALGEIVGRKLSSHDIIRGLRVDGVGTMIGGTFNSFPHTSFSQNVGLVSVTRVHSRWVCISSGIILILFGMVPKMAVLVASIPQFVLGGAGLVMFGMVLATGIRILSRCNYTTNRYNLYIVAISLGVGMTPTLSHDFFSKLPAVLQPLLHSGIMLATLSAVVLNVFFNGYQHHADLVKESVSDKDLKVRTVRMWLLMRKLKKNEHGE”, the protein production result was “failed”. For “MSAIPENANVTVLNKNEKKARELIGKLGLKQIPGIIRVTFRKKDNQIYAIEKPEVFRSAGGNYVVFGEAKVDNFTQKLAAAQQQAQASGIMPSNEDVATKSPEDIQADMQAAAEGSVNAAAEEDDEEGEVDAGDLNKDDIELVVQQTNVSKNQAIKALKAHNGDLVNAIMSLSK” the value was “failed”; for “MSAIQNGTDEVRVIDTGAPPTRFARGWHCLGLASEFSDGKPHQISAFGTELVVFAGEDGKLNVLNAFCPHMGGNLADGTVKGDTIACPFHDWRWRGDGKCADIPYARRVPPLARTKSWLTLERNGQLFVWNDPQNRKPPAEVTIPEISVFGDEGWTDWVWNKLEVRGSHCREIVDNVVDMAHFFYVHYGMPTYFKNVFEGHVATQVMRSKPRADAVDVKLGTNYDTESASDASYFGPSYMIDKLWTEGDDSGEPNIMLINCHYPISADSFMLQYGVMVKKPEGVPDAVANGIAAQVAAGVAIGFEQDVEIWKKKSSIDNPLLSEEDGPVYQLRRWYEQFYVDVEDINPEMTNRFEFEIDTDRALKNWQVEVDANLAAGRSAIPSPVS”, “not failed”; for “MSAKTNAEVVIDGKVYTLSGYENEEYLQKVAAYINNKIAEFDDMDEYKHLPGNMKSTLIELNIADDYFKAKALVEKLEGDIENKDKEIYDLKHDLISNQVKTENAEASMKELEAQNKELLLNKARLEATLEESLLDGKKPVKKSAHASKGANDSSDK”, “failed”. The same measure for “MSALVSMNGNNGSTATSARIAAKKPISILVLGVDQGLEGRNDKGNSDTIILVTVNPTTKKATMTSIPRDTLTEILGETSNTSYYMFKVNSAYQFGGSSGSIKTVSAMLNVPINYYVEVNMKALESLVNALGGVDVNVPFSFSYDWCDFKKGKQHLDGRYAIAYARMRYDDPRGDYGRQLRQRQIIQAVVKKGLSVNGLANYQKLLKVFAKYVKTNLTFGDMTSLAINYRSAASNISSGYIQGHDATISGTSLQIASTEELQKWSNKLRKSLGLSPQTLTNQETRQNSLNETYNGVDFSSNETITNYTIYEANSITPRSSDSWLEHHHHHH”: “not failed”.

With “MSAMGAGPDHLFNLRNNFYLGAYQTAINNSEIANLSPENAVERDCLVFRSYIALGSYQLVISEIDESAATPLQAVKLLAMYLSTPQNKESTISSLKEWLADSTIGNNDTLRLIAGIIFMHEEDYNETLKHTHAGGTMDLYALNVQIFIKMHRAEYAEKQLRVMQQIDEDHTLTQLASAWLNLAVGGSKIQEAYLIFEDFSEKYPMTCLILNGKAVCCMQMGNFDEAETLLLEALNKDAKDPETLANLVVCSLHVGKSSSRHLSQLKLSHPEHILVKRVSSAEDNFERAVQLVA”, the protein production result is reported as “failed”.

Take “MSANLKPGSQVNTDQKPEKTKVLILGGTGEMGQWFTRFFKQKGYEVTVWGKGGKTEIASKLGVPFASDLEKAVPESDILIVSVPINVTEETIAEFAPKMKSGSLLMDFTSIKVKPVEAMKKFAPSDVEILGTHPMFGPTIPTIRGQTVILVPVKGRSEKWFPVIRELFEEGGAHVEITTAAEHDRLVSVVQGLTHFAYITIGTTIDRLDFDIKKSRKFVSPVYAIMLDFVGRILGQNPYLYALIQMENPGVLEVHDAFIRECEELSRLVRAHDEESFVKKMKSAARKYGDTAHALRKSDKLINSRITEYETILNSVGKVCGFSHFYSGKIHVGILGKAGPDEIVLTKMVSKGTSPHIKNKFVKLKLENLRMLSESELWEWRKENLEHSTRDISVLIPEGADPEVILNAINTNKQLAACEISDIYKGVNQGDHKRINRGDYKEFNRIETEKEREEAKRLGVTYRITVFGDCDANSVEADVTSLLCGLGCRIREKNLKQIEKTEPKR”: the protein production result is “failed”. With “MSANSHFHSTHESHYQCAVCSSIDANPNSLAVNYQCLADSSVVGEFHVLPRHQGYTDLLHGGIASSLLDGAMTHCLLFRDIQALTAQLDVRYHAPIELDEHVTITAHCEGERRGIYQLVAQLLVNNEVRVTAKGKFIRPKEA”, the protein production result is reported as “failed”. The same measure for “MSAPCCGCGKTLDVAAMHARQRRVLWWVLAINAGSFALMLAGALHSGAASLLSGSLDNLGDALTYALSLAVVGASMAAKARVALLKAGLILLAALAVAAEIGWKLAHPQVPLFQSMGLVAAANFLANLVCLRLLWPYRDGDINLASAWACSRNDVYEGVAVLAASGAVWALGSGWPDLLIAVGLLVVFLRSAWQVARRAWAELGTAG”: “failed”; for “MSAPLVYHHTPPALLPLYGKALLPKSGKNHPEAVQIPRLEASLLGVTTDIPALRDYMKVCNFQPGTRLPVTWPHILAFPLHLKLLTEPAFPLPLLGLVHLRNSITQHRPLAAGENLDLKVILDNQKRTDRGLEFDLVTEARASGRLIWEEVSTNLFRITNGPGKTSPKPKPELETYPFSEAIKAPENLGRQYAKVSGDRNPIHMHALSARAFGFPRAIAHGMWSKARALALLENQKGWKDGPVRASCQFKKPLLLPGNAMLNWQTGKDGWDFQLLNAKGDAPHLTGRIDWL”: “failed”; for “MSASLPRTSATALSSTSPLSARDAAPPKRPRFLRGGVAFSLSPNRDNGLVTFRLDTIGTGLVFADSLSNLTAALATQGGGGAAVVQAPPGTGKTTLVPPLLANLVSEQSPGRPRVVVTQPRRVAARSAARRLASLDGSQLGRRVGYTVRGESKVSQDTVVEFVTPGILLRRLLADPGLEDVSAVVLDEVHERGLETDLLVGMLAEVRELRGDITVVAMSATLDAARFATLLGTGLDGGDPAPVVDCPSALYPLKVQWVPAREHRLDARGVSRLFLDHVAHTAATTHAAALAPDADVDALVFLPGAREVSDVATRLRGLVSGNVEVLELHGQIGPEAQDRAVSGREPGGLPRIIVSTSLAESSLTVPGVRVVIDSGLSREPRRDAGRGMSGLVTVSCSRASADQRAGRAARQGPGTVVRCYDQQAYAAAPAHQTPEISVADLTSAALVLACWGAPGGVDLKLPDAPPAAAMNDAVEVLRELGAVTAEGTVTAVGKTLARIPADPRLARALLDGSAVAGRRAAAETVALVAGGQRAPGADLNKLLSALRSGSDPGARRFAEDVQRMETLVRKEAAAVVRPKAAADVTAGEATGLVVALAFPDRVARRVPGDGSTTYLLSSGTRAGLPSGSSLSGHDWLAVAEVSRAQGRDAAGTGAVIRSAATLSAELAEAAAPDLLTEKVEAKFDQGRVMARLERRLGAIVLSSTPVRPTAESGRRAVSEALEKTGLSMIGWSPAADALRRRLALLHRELGSPWPDVREAALLSRLEDWLGPELEAVATGAAVSSINLVDPLRRLLPWPDAARLEDLVPERLEVPSGSRVRIDYPEVSDRSSGDHDDGRPVVAVKLQECFGWDSTPRLLAGRVPVLFHLLSPAGRPLAVTDDLASFWSGPYSQVRAEMRGRYPRHPWPEDPWTAQATAKTKNRM”: “failed”. For the sequence “MSATVPSTASSRAPATTGFRSFLPLIGAVVIWGGNWPVMKMGLAHISPLWFAACRFGSAALISFLVLGALRRLRLPSRQEWPLVIGVGLLQMGAFTALALWALQYVPPGRASVIAYATAIWVIPLSSLVLGERPSRLQWLATAFSYAGIAVIVAPALGGWELHTVMGLTMLLGASLAWSVSIIQLRANRAIRLGADMIPWECAVATVPLIALAWLRDGAPDLGAMVDIWPVIAYTGPLATALTFIVVLNVTQSLPPAATSIAMLGVPVIGLVLSTVAWHEQISLDLSIGLALIGMGVVTTALAPRLGRLAAR”, the protein production entry is listed as “failed”.

For the sequence “MSAVTYTFLGPQGTFTEAALMQVPGAADATRIPCTNVNTALERVRAGEADAAMVPIENSVEGGVTATLDAIATGQELRIIREALVPITFVLVARPGVELSDIKRISTHGHAWAQCRLWVDEHLPNADYVPGSSTAASAMGLLEDDAPYEAAICAPLIAAEQPGLNVLAEDIGDNPDAVTRFILVSRPGALPERTGADKTTVVVPLPEDHPGALMEILDQFASRGVNLSRIESRPTGQYLGHYFFSIDADGHATDSRVADALAGLHRISPATRFLGSYARADKQPAVVAPHTSDAAFASAHAWVDSILKGS”, the protein production result was “not failed”. The same measure for “MSCCIANAIRWDVSLLIHRSMSSSMSSVQPTSPVSDSPSLGEMHASVAVSRRGHWGFRLLAFLGPGYMVSVGYMDPGNWATGLAGGSRFGYMLLSVILLSNVMAIVLQALAARLGIASDMDLAQACRARYSRGTNLALWAVCELAIIACDLAEVIGTAIALNLLLGVPIILGAVITAVDVVLVLLLMHRGFRALEAFVIALLLVIFGCFVVQIVLAAPPLQEVLGGFVPRWQVVADPQALYLAIGIVGATVMPHNLYLHSSIVQTRAYPRTPVGRRSALRWAVADSTLALMLALFINASILILAAAVFHAQHHFDVEEIEQAYQLLAPVLGVGVAATLFATALLASGINSTVTATLAGQIVMEGFLRLRLRPWLRRVLTRGLAIVPVIVVVALYGEQGTGRLLLLSQVILSMQLPFAVIPLLRCVADRKVMGALVAPRWLMVVAWLIAGVIVVLNVKLLGDYAVHLMVGVSD”: “failed”; for “MSCTGFWRKLASGEECGAAARLLGAVLAIPAALYGLVVRLRALAYARGLSTVRHLDRPVISVGNLTVGGTGKTPMVAYLARRLMARGKRVAVISRGYGGSLEGETRIVSDGRTIVLSAAEAGDEPVHLATSVPGLMTVIGTDRYTAGLLALEQLDPDVFILDDGYQHLRLHRDLNILLMDCNRPLGNGRTLPAGLLREPQTAVRRADLVVYTRCTGGKAPAVHGMIPSCRAGHALTGAALLPDGEVQPLAALRGLRGVACAGIAEPEGFFDALRREGLDIVAAIPFADHASYGEREVSTLREAAAGADYLITTGKDGVKLSAHLARLLPVYATVLEMRPLDPAPLEAALDKVL”: “failed”; for “MSDAHVLKSRLEWGEPAFTILDVRDRSTYNDGHIMGAMAMPIEDLVDRASSSLEKSRDIYVYGAGDEQTSQAVNLLRSAGFEHVSELKGGLAAWKAIGGPTEGIIESRLEHHHHHH”: “failed”. For “MSDARAWDSPDDAHRLIAKALAELVAEDPTIPPHPYLSRHLAQHAARGRVLDDTHVPLAILPWESSRNVRILLRQTGATQQQDWLEAWAGIEPFVRDADPDSRLTSLHLAHHTATCRRLSLTARPVSERRLAGSRITPLWSDWTAPDNVLAVSDTLVESLAHTTTAPGRTLLISGDSHGTIRMWEANGTPAGAPLHTHGGAIQHLLPLQHDLLVSGGTDGAVRVWHSTRGQQLVEPVRRPHTWVSALALFEPADGARFLLVAHSDGHLTALDPVTFEPADTPLPALDPAPAILTPLATADGTALVIAQGRRVVVWRPGRGVVHISEHQGEVRAVVALPSGGRYAVCDDSGYLGFWDVSTGHETVAAGPAHDGPVIALTTLAVDGRQTVVSAGLDHTLRVWDADTGRPVGGALEGHTDPPVALTTLPGEGQELVVSAAADHTLRRWKLAGHGTRPRRPVRRPVTAAALPGPTVVPALLAAVADGAGTALWNVRTGRHVSLPAGEPPVTAFAWATVHGDPVLLTAHSDAAVRLWSLYAGNAVTPSLRGTLLNHSLPVQAMTAFPHAGATLLATGGADGSVRLWHLGDRLELAHWDDHALSVRDVTLLGTGEDALIVSAGSDGTVRLWDPGTRRASGGPVHCGQQVVHAVTTVAPHPDEAALIASGGEDGTVRLWDPTTRQPVGDPLDARDGAVTALASFHTPAGRPCLAAAGPSGTIHLWDVAARTHLLRIVTGNPLSTLAARQTGEPFTEHPVLLAAGTAGVCMFDVRLERLR” the value was “failed”.
